Test results from US20190202920A1 (F STAR BETA, published 2019).
Substitutions are numbered along the chain they refer to.

B1: mAb^2 RI/FS1-60 (bispecific antibody, human IgG2, kappa)
heavy: QVQLQESGPGLVKPSETLSLTCTVSGGSISIYYWSWIRQPPGKGLEWIGYVYYSGSTNYNPSLKSRVTISVDTSKNQFSLKLNSVTAADTAVYYCARGGYDFWSGYFDYWGQGTLVTVSSASTKGPSVFPLAPCSRSTSESTAALGCLVKDYFPEPVTVSWNSGALTSGVHTFPAVLQSSGLYSLSSVVTVPSSNFGTQTYTCNVDHKPSNTKVDKTVERKCCVECPPCPAPPVAGPSVFLFPPKPKDTLMISRTPEVTCVVVDVSHEDPEVQFNWYVDGVEVHNAKTKPREEQFNSTFRVVSVLTVVHQDWLNGKEYKCKVSNKGLPAPIEKTISKTKGQPREPQVYTLPPSRDELDEGGPVSLTCLVKGFYPSDIAVEWESTYGPENNYKTTPPVLDSDGSFFLYSRLTVSHWRWYSGNVFSCSVMHEALHNHYTQKSLSLSPG
light: not shown
B2: mAb^2 RI/FS1-65 (bispecific antibody, human IgG2, kappa)
heavy: B1 heavy with R409K, H414Y, Y418V, S419K
light: not shown
B3: mAb^2 FI/FS1-60 (bispecific antibody, human IgG1, kappa)
heavy: QVQLVQPGAEVKKPGTSVKLSCKASGYTFTTYWMHWVRQAPGQGLEWIGEINPTNGHTNYNQKFQGRATLTVDKSTSTAYMELSSLRSEDTAVYYCARNYVGSIFDYWGQGTLLTVSSASTKGPSVFPLAPSSKSTSGGTAALGCLVKDYFPEPVTVSWNSGALTSGVHTFPAVLQSSGLYSLSSVVTVPSSSLGTQTYICNVNHKPSNTKVDKRVEPKSCDKTHTCPPCPAPELLGGPSVFLFPPKPKDTLMISRTPEVTCVVVDVSHEDPEVKFNWYVDGVEVHNAKTKPREEQYNSTYRVVSVLTVLHQDWLNGKEYKCKVSNKALPAPIEKTISKAKGQPREPQVYTLPPSRDELDEGGPVSLTCLVKGFYPSDIAVEWESTYGPENNYKTTPPVLDSDGSFFLYSRLTVSHWRWYSGNVFSCSVMHEALHNHYTQKSLSLSPG
light: DIVMTQSPDSLAMSLGERVTLNCKASENVVSYVSWYQQKPGQSPKLLIYGASNRESGVPDRFSGSGSATDFTLTISSVQAEDVADYHCGQSYNYPYTFGQGTKLEIKRTVAAPSVFIFPPSDEQLKSGTASVVCLLNNFYPREAKVQWKVDNALQSGNSQESVTEQDSKDSTYSLSSTLTLSKADYEKHKVYACEVTHQGLSSPVTKSFNRGEC

How the values were obtained:
[1] = molecular target: T1, His-tagged human EGFR (Sino Biological) (human, UniProt P00533 25-645); experiment: SPR (BIAcore T200), mAb^2 captured on anti-human Fab chip, His-tagged human EGFR as analyte, 1:1 fit
T1 construct: also called His-tagged EGFR

[2] = molecular target: T2, cell surface EGFR on human cancer cell lines (A431NS, MDA-MB-468, U87MG) (human, UniProt P00533 25-1210); experiment: flow cytometry, blocking of biotinylated EGF binding to MDA-MB-468 cells
T2 construct: whole, on cells; The cell line of each entry is named under assay; also called EGFR on A431NS cells; EGFR on MDA-MB-468 cells

[3] = molecular target: T3, cell surface EGFR on HCC827 cells (E746-A750 deletion) (UniProt P00533 25-1210); experiment: flow cytometry on HCC827 cells
T3 construct: whole, on cells; Residues E746-A750 are deleted; a deletion cannot be written as a substitution

[4] = molecular target: T4, cell surface EGFR on NCI-H1975 cells (mutated EGFR L858R and T790M) (UniProt P00533 25-1210, limits assumed); experiment: flow cytometry on NCI-H1975 cells
T4 construct: whole, on cells

Binder | Kd [1] | IC50 [2] | EC50 [3] | EC50 [4]
B1 | 3.6 nM | 0.45 nM | – | –
B2 | 1.8 nM | – | 3.56 nM | 2.16 nM
B3 | 3.5 nM | 0.71 nM | – | –
